Results on 68 sequences are retold here after the domain aggregation screens of Martell et al. (2025).

The data set is described as follows: soluble fraction after stress (log2 fold change); higher = more stays soluble; pooled small domains, quantitative proteomics. Particulars: stress: pH 4. The method, boiled down: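 Custom libraries of small protein domains were pooled and measured with high-throughput quantitative proteomics after pH 4 stress. The read-out is the fold change in the amount of each domain that stays soluble after the acid stress, taken as a measure of aggregation propensity. Fold changes are on a log2 scale, and higher values mean more of the domain stayed soluble.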

A value given as a limit tells only on which side of the number the result lay.

For “HMTYPGSIALVNPKHEAFVQHYVATSGSRGQAAKLAGVTTTTARNLLQDVEATARIRYLNAQQFQ”, the “soluble fraction (log2)” value is 0.22. Consider “HMTYTGTVTGVDEGGLRVRSSTSTENTSNVITKVYTGDTFDVLDTVYNGSAKWYKIGFTYNGTYTYGYVSA”, for which the “soluble fraction (log2)” value was -0.518.

For “HMTYVSVSNYIGTNVDKAKGELESQGLVVLLEEQKTEDKSQDGMVLKQTIEGGTKVSSGSRITLIYGRYT”, the “soluble fraction (log2)” value was -0.117. To “HMVADEGELLAIAREVVAANPKVFEDWKAGKQSAAQWFVGQIMKRTRGRANPQLALKLVTQALEEHAR” belongs -0.21; to “HMVAEKSKIEMAIDSINKLAKELADSGVAKKTISDIIKSVSGSANYNKITDFEVATDVYKELVALKNKEDT”, -0.224; to “HMVAESGLPPAFRSTWRHIMQTRGAQLDVLAMRTGTDAASLQKQLHAMELGGWVRRMPGGWYVPLK”, -0.1. For the sequence “HMVAFYATPKERGIYDDAETYREGDIVSIADGSRWIYVNPTATAGNDPADGSVYWERMSGAATGP”, the “soluble fraction (log2)” value was -0.127. The result for “HMVAGHLQEKKGYFYMVLTYRDHEGKRKSKWLPTGLTIKGNKKRAQDLLQDARKNFVPDIPT” reads not below 0.43; that for “HMVAGHLQEKNGYFYIVLNYTNHEGKRKSKWITTGLTVKGNKKRAQDLLQEARKTFVPDIPT”, 0.22; that for “HMVAPKDIVMPSFVGKKYTDVVNTPNSSYTFEFKKDEKNSSDYAVGFIMDQKPKAGETVKSNATVTLIVSK”, 0.0982. The result for “HMVAPNSEATTKLIIEKTKYANESPAILMGFKATATMLMAKHVVLPTSKYAYFNEGRALLEKAIK” reads 0.278. The result for “HMVAREAYTTQNLTDVFSISRQAVEKRAKREGWQSVPRKGRGGGKLWVVSSMPAETRDLLASLLLRK” reads not below 0.43. Regarding “HMVDALYGQGARVMRDFSEGSGIVKLDNGETWTGRLSPAASGASLYVGDRVIVTRIDGAIAEVTPP”, the “soluble fraction (log2)” value is -0.446. With “HMVDDNFGLGEVTDQNYLTVLGRALDLIGWTDEQADSYSLKTFGVPHWDELGRSQAEKLVAHLIGLLKEQM”, the “soluble fraction (log2)” value is -0.157. To “HMVDIEQAEFLSRQFDLLLARLDDPTIEWQDIADIRSEYTGENEHRDTIRKGSKLFYEYLQAGWIKN” belongs -0.809; to “HMVDISLSDRELEVLRLLAMGLSNADISRRLYLSEGTIRNYMSGIFSKLNVSDRTQAVVIALREGLVNL”, -0.976; to “HMVDPAEASKRAREYLDALPADDLKDVIRQFSATLAEGSVVLGYFQRSGLKSKVVKTALEQFVASTILSK”, -0.268. To “HMVDPAFLAWQQKPENTWFGTDRRKTALAIAIAEEIRNDPANSNLVGAAFYARVAEETEETLN” belongs -1.23; to “HMVDPWLEQVHRASAAYATAHGSARIPTTHPDLGWKVVRVRQRHRKGLLSDEWVAKFEALPGWTWEPK”, -0.471; to “HMVDQAFQTQLKNIQARTGKNLDELYAFIRASGLVKHGEIRDLAKRELSLGHGDANTLAKFYLESLAAAA”, -0.103. To “HMVDQKLIQASAEHSGIRIDRFLSEQLPEHSRSYIQKLIKDGQVSIGGKAVKSNYKIAGTEEISLLIPDQ” belongs -0.224; to “HMVDTSDLPAIVEKVFADNPEQVNDILNGKDRVKGFLVGQIMKATRGQAPPDEVNKLIDATLEKMKAA”, 0.188.

Consider “HMVDYIGRRGVMLSTVSEEKMGNAEVVIDGNSYNIYVKSLDGSTIAYHQEILIINKSKDNNYFLVQIY”, for which the “soluble fraction (log2)” value was -0.548. On to “HMVEAIDQALIEKQIQAVLQENSAAVKKYQAGKTEVLAFLIGQSMRKIAKKVDANLVKNILLEQLKNK”, for which the “soluble fraction (log2)” value was 0.077. For “HMVEDFSEVLLQYIREQGGAIALNDKTDAGVIYDTFGVSKKTFKKAVGDLYKKRLIVLGDEGIRLA”, the “soluble fraction (log2)” value is -0.939. Take “HMVEIGENIKKLRKAKRMTQKEVANQLNVTPQTISKWERNISYPDLDMLVKLSQLFHISTDALL”: the “soluble fraction (log2)” value is not below 0.43. The result for “HMVELNDNEKIVYDILKETEKIHIDELTAKVQLTQSILSGALVQMEMKGMIVSLPGKMYKLL” reads -1.53.

For “HMVELRDGSLPLARGSVGDLVAEVQRKLGVAADGIFGPQTERAVRAFQARAGLASDGIVGPLTWSALFGA”, the “soluble fraction (log2)” value is 0.117. Consider “HMVELVKVPALQGETVDEAIADIKDAGLEPGQVRYVESDLPKDTVTYQSVDAGEQVKAGTVINLQASKGP”, for which the “soluble fraction (log2)” value is 0.137. To “HMVEMSNMELVREQYFQNLIYNVGDWVKDSKTEITGEVVKRGTNYLTIVQEDFTLHKVWLEDAESME” belongs -1.46; to “HMVEPDELTEREREVLQFVARGLSNKEIGAALALSPHTIKAHLRSILDKLHLRSRAEAAAWAVRSGLS”, -0.162. For the sequence “HMVEPLIVRNFSINYADIDKLETKIKDYISNSDKSGVNRGRVTSDTRTNMLIVTETASKLAQVEQLLKALD”, the “soluble fraction (log2)” value is -0.591. To “HMVEPTDFTYLKAEVETAKALKQADYTVATWKSFAGELAEAEEVIAKTDASQAEVNEALSHLQAAEKELV” belongs 0.215. As for “HMVETDQESSLIQAIYKYFEITGDNTFFDEKVGEKTVADRMEWAMDYLIQNRFSEEYGLIWGA”, the “soluble fraction (log2)” value is -0.517. To “HMVFADRLRALRKKSGLTQDEFSKQTGIGRSAVGMYESGKREPNYTTLSKVARFYHVSTDYLLGRTDTP” belongs -0.13; to “HMVFQTAAEKAYEIISKKIMKGEYEPGMRLVRRQLAQELGVSPIPILEAMKRLEQDGLIEYKAHWGSIVTI”, -0.56; to “HMVFRFELQPSSATPLYRQIVEQVTRAVAAGVLRDGEELPSVRAVAQEYVINPMTVSKAYSLLEAQSI”, -0.34.

For the sequence “HMVFSNLGSRGEEVRQIQTKLKELGYLQGNVDGIYGNQTKQAVTAFQRDHGLSADGIAGEKTLAALGIG”, the “soluble fraction (log2)” value was found to be 0.105. To “HMVGAEDISKPMNLGALMRTAHAFGASFFFTINAHPKVRHAYNSDTSRSFDHMPYYPWDTMEE” belongs -0.287; to “HMVGDLPPQELRVFELIGDGLSNREIADEMILAEKTIKNYVTSLLQKLGMQRRTEAAAFAARLDER”, -0.607; to “HMVGDMLTQKDSEGLTAYLYQQGIISQREMLLLNGILKDRVLTGMEKGQRDSVRASMVQHLLAMLNMM”, -1.55. Consider “HMVGEQISYIPLKFATASEVVKSLTSMFQQQKGIAPIRIVAEERTNAILLLASEADTARVKNLIAMMDKGV”, for which the “soluble fraction (log2)” value is -0.0978. Take “HMVGGIAIGQFNVPRGSVKVTAGGRLLQEGLDYTVNYQAGRVQILDESLKNSNVPIEISTESNS”: the “soluble fraction (log2)” value is -0.111. To “HMVGMDRYFKIKNIKDSSAAFERDYILHFLKENDWMVSKTAQMIGLERTTLYKKIKQLGLASMLEN” belongs -0.386; to “HMVGQIISNARKQEKMTQSELAEKVGTNKTYISRIEKGVIEPGVGLFFRIIDALGLKIEIVKP”, -0.362; to “HMVHSEDLQDHKYVSQLGEVFLKENPNYENIKKSWGDHMVVIKKFGRYPHRNKILNRKSTPEELEFLKG”, -0.115. The result for “HMVILPGEKMVVKIVQPGKEKGQGVGYLADGTMIVVDSGDKMIGQDVPTEITRVFQTVAGKMLFAVPVD” reads -0.255; that for “HMVIMDLIVNGEPKYVVGEQLHLILDELGYSGKHFVVELNGEILSKEAYTTTKLTAADRLEIVSFVGG”, -1.72. To “HMVITATYTDFMDALEADEVKQVQFSSTEINYTIEKGGHVQYFKTGVVDNPQLPQILREKGVTYAAEIP” belongs -0.023; to “HMVITDPFFLEPENLVKDAVALMEKYRISGVPITKKGKLVGILTNRDLRFESNYEQPIANVMS”, -0.363; to “HMVITISEADVSGTYTKSITQGDWKYIRTWTPFEDERLYDLAKDPMELRDLAPAAPSKLAELRELLSALVS”, -1.56.

Take “HMVIVMRKDADAASIEKVVSEVKSRGFMPHVSEGESRTLIGAIGPAPTEELREHFAGLAGVETVVRITK”: the “soluble fraction (log2)” value was -0.0319. In the case of “HMVKDIEFSLPLEQDYYKVLISVKDSQGKRQVYEELHRAGDTVYAAVRYYGSGELEIHLNGKFYKTIK”, the “soluble fraction (log2)” value is -1.6. As to “HMVKDLEIETIRLNNLLASDAEEVLKSLGGAKPTYKAVAVPGSNSLVIEGTKADLIKLKSIINALEDGS”, the “soluble fraction (log2)” value is -0.316. To “HMVKETNYSFFLKQIDAGTVEQVQIEDTEIKFKVSTADGKEQVYSTVRVEDPDLVDRLYSKGNIDFTGN” belongs -1.3; to “HMVKIIHYEVYANRGDGWKLVDQFSADQRQEAVNLAKEIETEDQVAVKIIREIFDVQDNTYQESVEYIG”, -0.804. The result for “HMVKLDDLTGQDKATAEATITNSGLKYSEQQEFSDEVEAGKVIRTDPGAGTSSLKAGDTVTVYVSRGPEN” reads -0.0896; that for “HMVKNYYEILEVDKKASPEVIEKAYKTLAKKYHPDLQEAENNGQYEEKMKEINEAYSVLSDEFKRRTYDEQ”, 0.103.

With “HMVKSYEVPDVSNLTVLEAEAKLQEMGFEIDEEQKEISSSDIESGRVVKTSPQAGSKRKEGAIITLYVSSG”, the “soluble fraction (log2)” value was -0.433. The result for “HMVKTANVAYSEFLKLVESDNISDVSIVGRTITGHLDDGTKFSTYTPPNDPSLIDKLTRKNVIIKSAPE” reads 0.181.

Take “HMVKVEVKPNVLQWVIKRMDNFDRLKDQFPNIDKWINQESQPTLKQLEKLAKMTAVPLGYFFLPNPPEEK”: the “soluble fraction (log2)” value is -0.507. Consider “HMVLELRIGQIVRGVLLQLVGEREGIVSVGGVPVRARLEAEIPLGRGVMLQVQPGSDANNILLKPV”, for which the “soluble fraction (log2)” value is -0.139. To “HMVLENLKKFIDSKGISVSAFEKSIGMSNNSFRKSLNSGGHIGSDKLENILKIYPELNPVWLLQGEGEML” belongs -0.0839; to “HMVLGSSVAMGQKIGDSDLTWVEVPLSSAFDRFLSEPEWRGSSDLVAARLLEAGVFLTEDDVVE”, 0.136; to “HMVLLGAAIRELRIQKGITIEELAEMSGLSTGLISKIERDLGNPSISSLRKISRALGVPTAFFFA”, -0.744. To “HMVLSKGAKELLDFIMREGEVTTSKVVQKFGGSAQNASAKLKKLYATGLILGSKAVAESGGLEFVYKA” belongs 0.1.

As to “HMVLSVRERMGIVLEKVNTETFTDFKELFTVEEGRAGAIVSLLAILQLMKDSLIQLVQNEPNGPIYVKAA”, the “soluble fraction (log2)” value turned out to be 0.22.

In the case of “HMVLTSFHDNFPKTGTTYTVRSGDTISGIATKFGSTRDWIQNANEISHPKYLQVGRTLFIPH”, the “soluble fraction (log2)” value was 0.22.
